Measurements taken from the Immune Epitope Database (IEDB).
Values belong to the sequence of their own block, whether it stands above or below them.

How the values were obtained:
HLA-A*01:01 = assay: IEDB peptide-MHC binding, purified MHC/direct/fluorescence; filed as Kd, often an IC50 or EC50 that approximates it; ≥ and ≤ were set here for values at or beyond the usual limits of such assays
HLA-A*02:01 = assay: as above
HLA-A*11:01 = assay: as above
HLA-A*31:01 = assay: as above
HLA-A*69:01 = assay: as above; settings: source organism: Mycobacterium tuberculosis
HLA-B*08:01 = assay: as above
HLA-B*08:02 = assay: as above
HLA-B*08:03 = assay: as above
HLA-B*15:01 = assay: as above
HLA-B*15:17 = assay: as above
HLA-B*18:01 = assay: as above
HLA-B*27:05 = assay: as above
HLA-B*40:01 = assay: as above
HLA-B*46:01 = assay: as above
HLA-B*48:01 = assay: as above
HLA-B*57:01 = assay: as above
HLA-B*58:01 = assay: as above
HLA-A*02:06 = assay: IEDB peptide-MHC binding, purified MHC/competitive/fluorescence; filed as Kd, often an IC50 or EC50 that approximates it; ≥ and ≤ were set here for values at or beyond the usual limits of such assays; settings: source organism: Mycobacterium tuberculosis variant bovis BCG str. Pasteur 1173P2
HLA-A*26:01 [1] = assay: as above; settings: source organism: Mycobacterium tuberculosis variant bovis BCG str. Pasteur 1173P2
HLA-A*26:02 = assay: as above; settings: source organism: Mycobacterium tuberculosis variant bovis BCG str. Pasteur 1173P2
HLA-A*26:03 [2] = assay: as above; settings: source organism: Mycobacterium tuberculosis variant bovis BCG str. Pasteur 1173P2
HLA-A*68:02 [3] = assay: as above; settings: source organism: Mycobacterium tuberculosis variant bovis BCG str. Pasteur 1173P2
HLA-B*07:02 [4] = assay: as above; settings: source organism: Mycobacterium tuberculosis variant bovis BCG str. Pasteur 1173P2
HLA-C*07:02 = assay: IEDB peptide-MHC binding, purified MHC/direct/fluorescence; filed as Kd, often an IC50 or EC50 that approximates it; ≥ and ≤ were set here for values at or beyond the usual limits of such assays; settings: source organism: Methylibium petroleiphilum PM1
HLA-C*15:02 = assay: as above; settings: source organism: Methylibium petroleiphilum PM1
HLA-B*15:02 = assay: IEDB peptide-MHC binding, purified MHC/competitive/fluorescence; filed as Kd, often an IC50 or EC50 that approximates it; ≥ and ≤ were set here for values at or beyond the usual limits of such assays; settings: source organism: Methylibium petroleiphilum PM1
HLA-B*15:42 = assay: as above
HLA-B*27:20 = assay: as above
HLA-B*40:13 = assay: as above; settings: source organism: Methylibium petroleiphilum PM1
HLA-B*45:06 = assay: as above
HLA-B*83:01 = assay: as above
HLA-C*06:02 [5] = assay: as above; settings: source organism: Methylibium petroleiphilum PM1
HLA-C*14:02 = assay: as above; settings: source organism: Methylibium petroleiphilum PM1
HLA-B*40:02 = assay: IEDB peptide-MHC binding, cellular MHC/competitive/fluorescence; ≥ and ≤ were set here for values at or beyond the usual limits of such assays; settings: source organism: Homo sapiens
HLA-A*80:01 = assay: IEDB peptide-MHC binding, purified MHC/direct/fluorescence; filed as Kd, often an IC50 or EC50 that approximates it; ≥ and ≤ were set here for values at or beyond the usual limits of such assays; settings: source organism: West Nile virus
HLA-C*04:01 = assay: as above; settings: source organism: Japanese encephalitis virus
HLA-B*73:01 = assay: as above; settings: source organism: Burkholderia mallei ATCC 23344
HLA-C*06:02 [6] = assay: as above; settings: source organism: human gammaherpesvirus 4
HLA-A*03:01 = assay: as above; settings: source organism: Yersinia pestis
HLA-A*26:01 [7] = assay: as above; settings: source organism: Yersinia enterocolitica subsp. enterocolitica 8081
HLA-A*26:03 [8] = assay: as above; settings: source organism: Yersinia enterocolitica subsp. enterocolitica 8081
HLA-A*68:02 [9] = assay: as above; settings: source organism: Yersinia pestis
HLA-B*07:02 [10] = assay: as above; settings: source organism: Yersinia pestis
[11] = source organism: Mycobacterium tuberculosis
[12] = source organism: Mycobacterium tuberculosis str. Haarlem
[13] = source organism: Methylibium petroleiphilum PM1
[14] = source organism: Burkholderia mallei
[15] = source organism: human gammaherpesvirus 4
[16] = source organism: Yersinia pestis
[17] = source organism: Yersinia enterocolitica subsp. enterocolitica 8081

Sequence: AVFDSFVER
Kd (HLA-A*01:01; [11]): ≥ 20 µM
Kd (HLA-A*02:01; [11]): ≥ 20 µM
Kd (HLA-A*11:01; [11]): 0.009 µM
Kd (HLA-A*31:01; [11]): 0.004 µM
Kd (HLA-A*69:01): ≥ 20 µM
Kd (HLA-B*08:01; [12]): ≥ 20 µM
Kd (HLA-B*08:02; [12]): ≥ 20 µM
Kd (HLA-B*08:03; [12]): ≥ 20 µM
Kd (HLA-B*15:01; [11]): ≥ 20 µM
Kd (HLA-B*15:17; [11]): ≥ 20 µM
Kd (HLA-B*18:01; [11]): ≥ 20 µM
Kd (HLA-B*27:05; [11]): ≥ 20 µM
Kd (HLA-B*40:01; [11]): ≥ 20 µM
Kd (HLA-B*46:01; [11]): ≥ 20 µM
Kd (HLA-B*48:01; [11]): ≥ 20 µM
Kd (HLA-B*57:01; [11]): ≥ 20 µM
Kd (HLA-B*58:01; [11]): ≥ 20 µM
Kd (HLA-A*02:06): 0.0023 µM
Kd (HLA-A*26:01 [1]): ≥ 20 µM
Kd (HLA-A*26:02): ≥ 20 µM
Kd (HLA-A*26:03 [2]): ≥ 20 µM
Kd (HLA-A*68:02 [3]): ≥ 20 µM
Kd (HLA-B*07:02 [4]): ≥ 20 µM

Kd (HLA-C*07:02): 0.448 µM
Kd (HLA-C*15:02): 2.18 µM
Kd (HLA-B*15:02): 0.0144 µM
Kd (HLA-B*15:42; [13]): ≥ 5 µM
Kd (HLA-B*27:20; [13]): 0.0003 µM
Kd (HLA-B*40:13): 0.0088 µM
Kd (HLA-B*45:06; [13]): ≥ 5 µM
Kd (HLA-B*83:01; [13]): ≥ 5 µM
Kd (HLA-C*06:02 [5]): 0.513 µM
Kd (HLA-C*14:02): 0.0132 µM
Sequence: FQMGGIGPM

IC50 (HLA-B*40:02): 1.9 µM
Sequence: KEQSPEPHL

Sequence: QTDNQLAVF
Kd (HLA-A*80:01): ≥ 20 µM
Kd (HLA-C*04:01): ≥ 20 µM

Sequence: RRHGMAWRQ
Kd (HLA-B*27:05; [14]): 0.213 µM
Kd (HLA-B*48:01; [14]): ≥ 20 µM
Kd (HLA-B*73:01): 12 µM

Sequence: RRRKGWIPL
Kd (HLA-C*06:02 [6]): ≥ 20 µM
Kd (HLA-B*15:42; [15]): ≥ 5 µM
Kd (HLA-B*27:20; [15]): 0.0002 µM
Kd (HLA-B*45:06; [15]): ≥ 5 µM
Kd (HLA-B*83:01; [15]): ≥ 5 µM

Sequence: SDDQLRLLK
Kd (HLA-A*01:01; [16]): ≥ 20 µM
Kd (HLA-A*02:01; [16]): ≥ 20 µM
Kd (HLA-A*03:01): ≥ 20 µM
Kd (HLA-A*11:01; [16]): 0.407 µM
Kd (HLA-A*26:01 [7]): ≥ 20 µM
Kd (HLA-A*26:03 [8]): ≥ 20 µM
Kd (HLA-A*31:01; [16]): ≥ 20 µM
Kd (HLA-A*68:02 [9]): ≥ 20 µM
Kd (HLA-B*07:02 [10]): ≥ 20 µM
Kd (HLA-B*08:01; [17]): ≥ 20 µM
Kd (HLA-B*08:02; [17]): ≥ 20 µM
Kd (HLA-B*08:03; [17]): ≥ 20 µM
Kd (HLA-B*15:01; [16]): ≥ 20 µM
Kd (HLA-B*15:17; [16]): ≥ 20 µM
Kd (HLA-B*18:01; [16]): ≥ 20 µM
Kd (HLA-B*27:05; [16]): ≥ 20 µM
Kd (HLA-B*40:01; [16]): ≥ 20 µM
Kd (HLA-B*46:01; [16]): ≥ 20 µM
Kd (HLA-B*48:01; [16]): ≥ 20 µM
Kd (HLA-B*57:01; [16]): ≥ 20 µM
Kd (HLA-B*58:01; [16]): ≥ 20 µM
